Assay results published in paper PMC9976613 (Journal of structural biology, 2018).

Molecular target: the molecule itself
Assay: crystal structure

B1: His6-DcrBΔ37 (domain or fragment, Salmonella enterica, UniProt Q7CPJ3 38-185, looked up)
chain: ASGQPISLMDGKLSFSLPADMTDQSGKLGTQANNMHVYSDPTGQKAVIVIVGDNTDEALPVLANRLLEQQRSRDPQLQVVTNKSIELKGHTLQQLDSIISAKGQTAYSSIVLGKVDNQLLTIQVTLPADNQQKAQTTAENIINTLVIK
binding result: binds
